Data reported in article PMC10009750, “Development of Selective ADAMTS-5 Peptide Substrates to Monitor Proteinase Activity” (Journal of Medicinal Chemistry, 2023).
Non-standard residues stand in square brackets, D forms with d. No end group written: not given here. Tyr(3-NO2) = N[C@@H](Cc1ccc(O)c([N+](=O)[O-])c1)C(=O)O; 2Abz = Nc1ccccc1C(=O)O

Experiments:
Assay type in all cases: biochemical
[1] = test system: MMP-2ΔC (catalytic domain of MMP-2); test: Selectivity studies: cleavage of FRET peptide substrates by MMP-2ΔC; details: substrate 20 μM; for preference (selectivity) for TS5-5 over MMP-2ΔC: ratio of cleavage rates
Procedure: (§1) All proteinase assays were performed at 37 °C in a SpectraMax M5 spectrophotometer (Molecular Devices, San Jose, USA) using a 96-well black microplate (Greiner bio-one, Stonehouse, UK) unless otherwise stated. […] N-TIMP-3 was purified as described previously[30] and CT-1746 was a gift from Dr. Yoshifumi Itoh (Kennedy Institute of Rheumatology, University of Oxford). All analyses were carried out using Prism 9 software (GraphPad, La Jolla, CA, USA).
(§2) Selectivity studies are described for Abz-TESE↓SRGAIY-Dpa-KK-NH2, the library parent peptide 3, and hit peptides 18–26. A solution of Abz-TESE↓SRGAIY-Dpa-KK-NH2 (22.22 μM) in freshly prepared TNC buffer with 0.005% (v/v) Brij-35 (90 μL) was added to a 96-well clear bottom microplate (Greiner bio-one, Stonehouse, UK) in triplicate. A substrate-only background control was also added in triplicate (90 μL). The resultant solutions were incubated at 37 °C (30 min). An ADAMTS or MMP proteinase was added to substrate wells (10 μL) to give a final proteinase concentration of either 50–90 nM (TS4-4), 25–200 nM (TS5-5), 5–10 nM (MMP-2ΔC), 30 nM (MMP-9ΔC), 92 nM (MMP-1), or 3 μM (MMP-3). TNC buffer with 0.005% (v/v) Brij-35 was added to substrate-only control wells (10 μL). The relative fluorescence intensity was measured at 37 °C for 1 h with readings every 20 s. Activity was read from underneath the microplate, which was covered with a low evaporation lid. […] For each ADAMTS and MMP proteinase, the assay was performed 2–4 times. […] Final rates were expressed as a percentage of substrate cleavage by TS5-5 (mean ± SEM) or in μM s^–1 μM^–1 of proteinase.

[2] = biological target: T1, TS4-4 (ADAMTS-4) (Homo sapiens, UniProt O75173); test: Selectivity studies: cleavage of FRET peptide substrates by TS4-4; details: substrate 20 μM; for preference (selectivity) for TS5-5 over TS4-4: ratio of cleavage rates; for rate of cleavage by TS4-4: TS4-4 50–90 nM, mean of 3–4 independent experiments in triplicate
T1 construct: TS4-4, TS5-5 = catalytic and disintegrin domains; made in house; host or cells: HEK293 cells (previously transfected stocks)
T1 sequence (O75173 213-519 limits assumed): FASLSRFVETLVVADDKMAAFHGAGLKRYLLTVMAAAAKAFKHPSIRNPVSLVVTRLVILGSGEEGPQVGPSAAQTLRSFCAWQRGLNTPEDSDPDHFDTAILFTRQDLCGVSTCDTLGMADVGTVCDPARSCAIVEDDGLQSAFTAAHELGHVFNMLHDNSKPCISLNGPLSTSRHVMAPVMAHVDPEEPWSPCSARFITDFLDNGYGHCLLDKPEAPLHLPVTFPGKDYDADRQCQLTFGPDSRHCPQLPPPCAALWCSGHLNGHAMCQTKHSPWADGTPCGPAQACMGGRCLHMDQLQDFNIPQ
Procedure: as §1, §2

[3] = biological target: T2, TS5-5 (ADAMTS-5) (Homo sapiens, UniProt Q9UNA0); test: Sensitivity studies with TS5-5; details: 37 °C; for ΔRFU after 20 h: single experiment in triplicate; for lowest ADAMTS-5 concentration at which activity is detected: 5 μM substrate, experiments performed for ∼20 h
T2 construct: ADAMTS-5 (i.e. TS5-5, residues 264–555); FLAG; made in house; host or cells: HEK293 cells (previously transfected stocks)
T2 sequence (Q9UNA0 264-555): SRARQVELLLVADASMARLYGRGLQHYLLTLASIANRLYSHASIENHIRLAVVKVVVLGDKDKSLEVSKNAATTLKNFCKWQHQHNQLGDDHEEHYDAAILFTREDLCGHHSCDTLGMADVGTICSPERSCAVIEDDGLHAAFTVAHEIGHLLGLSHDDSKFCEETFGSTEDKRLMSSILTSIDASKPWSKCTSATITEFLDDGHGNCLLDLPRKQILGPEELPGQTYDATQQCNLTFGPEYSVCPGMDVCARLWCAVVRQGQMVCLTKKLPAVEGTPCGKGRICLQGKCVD
Procedure: Abz-TESE↓SRGAIY-Dpa-KK-NH2, library parent peptide 3 and hit peptide 26 (5 mM) were each diluted to two concentrations (5.56 μM and 2.78 μM) in freshly prepared TNC buffer with 0.005% (v/v) Brij-35. The two concentrations for each substrate (90 μL) were added to a 96-well black microplate in triplicate. A substrate-only background control was also added in triplicate (90 μL). The resultant solutions were incubated at 37 °C (20 min). TS5-5 proteinase was thawed from −20 °C and made up at the following concentrations in TNC buffer with 0.005% (v/v) Brij-35:10, 5, 2.5, and 1.25 nM. Each concentration of proteinase was added to substrate wells (10 μL), with buffer added to substrate-only control wells (10 μL). The relative fluorescence intensity was measured at 37 °C for 24 h, with readings every 2 min.

[4] = TNC buffer with 0.005% (v/v) Brij-35, 37 °C, mean of 2–8 independent experiments in triplicate
[5] = TNC buffer with 0.005% (v/v) Brij-35, 37 °C

Substance	preference (selectivity) for TS5-5 over MMP-2ΔC [1]	cleavage by MMP-2ΔC as a fraction (percentage) of TS5-5 cleavage of the current substrate [1, 4]	preference (selectivity) for TS5-5 over TS4-4 [2]	cleavage by TS4-4 as a fraction (percentage) of TS5-5 cleavage of the current substrate [2, 4]	rate of cleavage by TS4-4 [2, 5]	ΔRFU after 20 h ([3]; 0.25 nM TS5-5, substrate 5 μM)	ΔRFU after 20 h ([3]; 0.5 nM TS5-5, substrate 5 μM)	ΔRFU after 20 h ([3]; 1 nM TS5-5, substrate 5 μM)	lowest ADAMTS-5 concentration at which activity is detected [3]
Abz-TESE↓SRGAIY-Dpa-KK-NH2 [current, ortho-aminobenzoyl(Abz)-TESE↓SRGAIY-N-3-[2,4-dinitrophenyl]-L-2,3-diaminopropionyl(Dpa)-KK-NH2, reference compound]	~0.7 fold	138%	~5 fold	22%	0.090 μM s^–1 μM^–1	no longer able to detect TS5-5 activity above background fluorescence	59	> 100	–
KY(NO2)SENESRGK(Abz)IYYKKG (K[Tyr(3-NO2)]SENESRGK(2Abz)IYYKKG) [Compound 26]	~8 fold	–	~13 fold	–	0.08–0.10 μM s^–1 μM^–1	> 30	> 100	> 100	0.25 nM
KY(NO2)TESESRGK(Abz)IYYKKG (K[Tyr(3-NO2)]TESESRGK(Abz)IYYKKG) [Compound 3]	~10 fold	–	~16 fold	–	0.08–0.10 μM s^–1 μM^–1	> 30	> 100	> 100	0.25 nM
